Test results as given in the nanobody polyreactivity screen of Harvey et al. (2022).

Experiment: yeast display, Sf9 membrane polyspecificity reagent, FACS + sequencing; frameworks hold sequencing errors
How it was run: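 Nanobodies came from a synthetic yeast display library in Saccharomyces cerevisiae BJ5465, induced with galactose for 36–48 hours and stained for 1 hour at 4 °C with 10% biotinylated, detergent-solubilized Sf9 membrane reagent. Cells were enriched on streptavidin microbeads and then FACS-sorted, with low and high (top ~1%) gates set on anti-HA fluorescence for expression and streptavidin fluorescence for reagent binding. Each polyreactivity label reflects the gate a clone came from. Genes were amplified by colony PCR, sequenced by MiSeq 2 × 250 and filtered by CDR length.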

| Sequence | polyreactivity (PSR sort gate) |
| --- | --- |
| QVQLVESGGGLVQAGGSLRLSCAASGIIFGYNAMGWYRQAPGKERELVAAINQDGSSTYYADSVKGRFTISRDNAKNTVYLQMNSLKPEDTAVYYCNARGVPRQDARMGYWGQGTQVTVSS | low polyreactivity |
| QVQLVESGGGLVQAGGSLRLSCAASGIIFGYNAMGWYRQAPGKERELVAAISTSGGSTYYADSVKGRFTISRDNAKNTVYLQMNSLKPEDTAVYYCAAGYRRTYGFNYWGQGTQVTVSS | low polyreactivity |
| QVQLVESGGGLVQAGGSLRLSCAASGIIFGYYAMGWYRQAPGKERELVAAITWSGGSTYYADSVKGRFTISRDNAKNTVYLQMNSLKPEDSAVYYCNADDDGRVSSTIVEYWGQGTQVTVSS | low polyreactivity |
| QVQLVESGGGLVQAGGSLRLSCAASGIIFGYYAMGWYRQAPGKERELVAGISSSDSTYYADSVKGRFTISRDNAKNTVYLQMNSLKPEDTAVYYCATPVYRSTYEYDYWGQGTQVTVSS | low polyreactivity |
| QVQLVESGGGLVQAGGSLRLSCAASGIIFGYYAMGWYRQATGKERELVAAINGRTGSTYYADSVKGRFTISRDNAKNTVYLQMNSLKPEDTAVYYCTAQSYKFHGDYWGQGTQVTVSS | high polyreactivity |
| QVQLVESGGGLVQAGGSLRLSCAASGIIFGYYARGWYRQAPGKARELVAAISRGGNTNYADSVKGRFTISRDNAKNTVYLQMNSLKPEDTAVYYCAADFWSRIKYFYAVDVDYWGQGTQVTVSS | low polyreactivity |
| QVQLVESGGGLVQAGGSLRLSCAASGIIFHFNAMGWYRQARGKERELVASITRGGNTNYADSVKGRFTISRDNAKNTVYLQMNSLKPEDTAVYYCAAKYRSRYDWGQGTQVTVSS | low polyreactivity |
| QVQLVESGGGLVQAGGSLRLSCAASGIIFHFNDMGWYRQAPGKERELVAAIDSTGSTNYADSVKGRFTISRDNAKNTVYLQMNSLKPEDTAVYYCAVLNHRVDSVLTRYYYWGQGTQVTVSS | low polyreactivity |
| QVQLVESGGGLVQAGGSLRLSCAASGIIFHKYSMGWYRQAPGKERELVAVITWRGGTTYYADSVKGRFTISRDNAKNTVYLQMNSLKPEDTAVYYCAAKDRSPRVRYQYEYWGQGTQVTVSS | high polyreactivity |
| QVQLVESGGGLVQAGGSLRLSCAASGIIFIGYTMGWYRQAPGKERELVAAISRIGGSTYYADSVKGRFTISRDNAKNTVYLQMNSLKPEDTAVYYCAAQYYGSSYRRGYYWGQGTQVTVSS | high polyreactivity |
| QVQLVESGGGLVQAGGSLRLSCAASGIIFINYAMGWYRQAPGTERELVAVITRGGSTYYADSVKGRFTISRDNAKNTVYLQMNSLKPEDTAVYYCNARYLSWWTGRFNYWGQGTQVTVSS | high polyreactivity |
| QVQLVESGGGLVQAGGSLRLSCAASGIIFITYAMGWYRQAPGKERELVAAITNSGGGTYYADSVKGRFTISRDNAKNTVDLQMTSLKPEDTAVYYCAARKTAYGYRYDYWGQGTQVTVSS | high polyreactivity |
| QVQLVESGGGLVQAGGSLRLSCAASGIIFIYYGMGWYRQAPGKERELVAAIARSGGRTYYADSVKGRFTISRHNAKNTVYLQMHSLKPEETAVYYCATTYTPTGFDYWGQGPQVTVSS | high polyreactivity |
| QVQLVESGGGLVQAGGSLRLSCAASGIIFKGYAMGWYRQAPGKERELVAAISQSGGSTYYADSVKGRFTISRDNAKNTVYLQMNSLKPEDTAVYYCNARYSRVVPRYYYWGQGTQVTVSS | high polyreactivity |
| QVQLVESGGGLVQAGGSLRLSCAASGIIFKSYAMGWYRQAPGKERELVAAITKRGGSTYYADSVKGRFTISRDNAKNTVYLQMNSLKPEDTAVYYCAADDGVGNTDDYWGQGTQVTVSS | high polyreactivity |
| QVQLVESGGGLVQAGGSLRLSCAASGIIFKVNDMGWYRQAHGKEREFVAAITYSGDGTFYADSVKGRFTISRDNAKNTVYLQMNSLKPEDTAVYYCAADLPESPESYYDTDDYWGQGPQVTVSS | low polyreactivity |
| QVQLVESGGGLVQAGGSLRLSCAASGIIFKYYVMGWYRQAPGKERELVASIRWSGGITSYADSVKGRFTISRDNAKNTVYLQMNSLKPEDTAVYYCAVAHSRLRTAYTFSVQRYDYWGQGTQVTVSS | low polyreactivity |
